Laboratory results reported in patent US8287851B2, “Use of interleukin 17E for the treatment of cancer” (Lorus Therapeutics Inc., priority 2005, dated 2012).

B1: murine IL-17E: Murine IL-17E from R&D Systems; predominant form starting at Val 17 of GenBank NP 542767 (protein)
chain: VSLRIQEGCSHLPSCCPSKEQEPPEEWLKWSSASVSPPEPLSHTHHAESCRASKDGPLNSRAISPWSYELDRDLNRVPQDLYHARCLCPHCVSLQTGSHMDPLGNSVPLYHNQTVFYRRPCHGEEGTHRRYCLERRLYRVSLACVCVRPRVMA
B2: human IL-17E: Recombinant human IL-17E from PeproTech; two 145 amino acid chains, predominant form starting at Tyr 33 of GenBank AAG40848 (protein, listed as Homo sapiens)
chain: YSHWPSCCPSKGQDTSEELLRWSTVPVPPLEPARPNRHPESCRASEDGPLNSRAISPWRYELDRDLNRLPQDLYHARCLCPHCVSLQTGSHMDPRGNSELLYHNQTVFYRRPCHGEKGTHKGYCLERRLYRVSLACVCVRPRVMG

Legend:
[1] = test system: B cell linker protein BLNK; test: BLNK phosphorylation in B cell lymphoma cell line WEHI-231 (Western blot); type: cell-based; details: 0.21 μg per 1.5×10^6 WEHI-231 cells, 0, 2, 5 minutes
Text: The effect of IL-17E on activation of signaling pathways in B cells was examined using the B cell lymphoma cell line WEHI-231 (Lanier L. L., et al. (1981) J. Immunol. 126:626-31). Specifically, the activation status of the protein tyrosine kinase Lyn and the B cell linker protein BLNK (Tsubata, T., et al., (2001) Int Rev Immunol 20:675-8) were examined. An increased level of the phosphorylated forms of these proteins is indicative of activation.
A total of 1.5×10^6 cells per sample were stimulated in vitro with 0.21 μg of either human IL-17E or murine IL17E at 37° C. Cells were lysed at time points t=0, 2, and 5 minutes in lysis buffer for 30 minutes on ice, followed by centrifugation for 10 minutes. Samples containing approximately 25 μg of protein were separated by SDS-PAGE, followed by transfer to membranes for Western blotting.
For detection of phosphorylated BLNK, Western blots were incubated with rabbit anti-phospho-BLNK antibodies, followed by horseradish peroxidase (HRP)-conjugated anti-rabbit antibodies.
To assess equivalence in protein loading among lanes in both experiments, blots were stripped of antibodies and incubated with mouse anti-GAPDH antibodies and HRP-conjugated anti-mouse antibodies, followed by chemiluminescence-based detection.

[2] = test system: human melanoma C8161 xenograft; test: Antitumour activity in murine xenograft model of human melanoma C8161; type: in vivo, CD-1 athymic nude mice
Experimental: Human melanoma cell line C8161 was grown in RPMI 1640 medium (Wisent Inc., St. Bruno, QC) with 10% fetal bovine serum, penicillin (100 U/ml), streptomycin ([…]) (Wisent Inc.) at 37° C. under 95% air and 5% CO2, and maintained with routine media changes. Adherent C8161 cells were passaged by trypsinization with 0.025% trypsin. CD-1 athymic nude mice and C57BL/6 (6-8 weeks old, 20-25 g, female) were purchased from Charles River (Montreal, QC).
Human tumour xenografts were established in mice. Briefly, human tumour cells were harvested at approximately 80% confluence in cell culture medium and resuspended in sterile PBS. Ten million tumour cells in 100 μl were subcutaneously implanted into the right flank of CD-1 athymic nude mice. When tumours reached a volume of 50-100 mm^3, mice were randomly separated into two groups of 10 animals and treated with BD-BRM until the endpoint of the experiment. Anti-tumour activity was evaluated and tumour volume was estimated by caliper measurements, using the formula: Length×Width×Height×/2. Tumour weight was determined from tumour tissue surgically excised from the animal on the last day of the experiment. The percentage of inhibition (%)=(mean tumour weight of control animals−mean tumour weight of drug-treated group)/mean tumour weight of controls×100. A p value of ≦0.05 was considered to be statistically significant.
Mice bearing human melanoma C8161 xenograft were treated intraperitoneally with BD-BRM or PBS for 4 weeks. Briefly, human melanoma C8161 cells were subcutaneously injected into the right flank of CD-1 nude mice as described above. The mice were then administered i.p. with 0.2 ml of PBS or BD-BRM daily when tumours reached a volume of 50-100 mm^3.
Recombinant human IL-17E was obtained from PeproTech, Inc., and is present in the preparation as a 33.8 kDA disulphide linked homodimer of two 145 amino acid polypeptide chains. The predominant form of IL-17E in this preparation is the form starting at Tyr 33 of the human sequence provided by GenBank Accession No. AAG40848. Human melanoma C8161 cells (10^6 cells in 100 μl PBS) were subcutaneously implanted into the right flank of CD-1 athymic nude mice. When tumours reached a volume of 50-100 mm^3, mice were randomly separated into two groups of 10 animals and treated as follows:
Group I: 100 μl of PBS intraperitoneally (i.p.) per mouse every other day until the endpoint of the experiment; and
Group II: 0.04 mg/kg of recombinant human IL-17E intraperitoneally (i.p.) every other day until the endpoint of the experiment.
The size of the tumours was measured by caliper measurements throughout the experiment. Tumour volume was determined using the formula (Length×Width×Height/2). T-tests were performed to assess the statistical significance of differences in tumour sizes. A p value of ≦0.05 was considered to be statistically significant.
The effect of human IL-17E dosage on antitumour efficacy was examined using a murine xenograft model of human melanoma tumour growth. Human melanoma C8161 cells (10^6 cells in 100 μl PBS) were subcutaneously implanted into the right flank of CD-1 athymic nude mice. When tumours reached a volume of 50-100 mm^3, mice were randomly separated into four groups of 10 animals and treated as follows:
Group I: 100 μl of PBS subcutaneously (s.c.) per mouse every other day until the endpoint of the experiment; […]

[3] = test system: eosinophils (CCR3+) in spleen; test: Eosinophils (CCR3+) in spleen of C8161 tumour xenografted mice; type: in vivo, CD-1 nude mice; details: C8161-engrafted mice, Example 21
Experimental: Briefly, single cell suspensions of spleen cells were obtained by meshing and passing through a cell strainer (70 um; Bectin Dickinson) to separate fibrous tissue. Erythrocytes were lysed with ACK (0.155 M ammonium chloride, 0.1 mM disodium EDTA, 0.01 M potassium bicarbonate, pH 7.3) for 5 minutes on ice. The single cell suspensions of spleen cells were then analyzed by flow cytometry for the presence of eosinophils by surface staining with an antibody to CCR3 using the method as described in Example 13.
The effect of interleukin 17E on increased percentage of splenic eosinophils and B cells and the proportion of activated splenic B cells was examined. CD1-nude mice engrafted with C8161 human melanoma cells were treated with either PBS, murine IL-17E, or human IL-17E as described previously. At the endpoint of the experiment, spleens were isolated from treated mice, stained with markers specific for eosinophils (CCR3+), B cells (either IgM+ or CD19+), and B cell activation (CD-80+, CD86+), and examined by flow cytometry. […]
The percentage of eosinophils was determined by surface staining the granulocyte-gated population with phycoerythrin (PE)-conjugated anti-mouse CCR3. […] The proportion of activated splenic B cells was determined by staining with FITC-conjugated anti-mouse IgM together with PE-conjugated anti-mouse CD80 and PE-conjugated anti-mouse CD86. […]

Molecule | levels of phosphorylated BLNK protein [1] | antitumour efficacy, comparison of i.p. and i.v. routes of administration ([2]; 0.04 mg/kg murine IL-17E every other day) | tumour growth (tumour weight) vs PBS ([2]; 0.04 mg/kg murine IL-17E intraperitoneally every other day) | tumour growth (tumour weight) vs PBS ([2]; 0.04 mg/kg murine IL-17E intravenously every other day) | percentage of splenic eosinophils (CCR3+, granulocyte-gated) as compared to PBS [3] | tumour growth (tumour volume) as compared to PBS ([2]; 0.04 mg/kg recombinant human IL-17E i.p. every other day) | antitumour effect with increasing doses ([2]; 0.0018, 0.016, 0.144 mg/kg s.c. every other day)
B1 | increased | approximately equivalent antitumour efficacy | inhibit tumour growth | inhibit tumour growth | significantly increased |  | 
B2 | increased |  |  |  | significantly increased | significantly inhibit tumour growth | dose-response effect
